The series deals with kinases of Table 6 on Myelin Basic Protein (MBP). Nature of the series: Kinase assay using MBP substrate, ProQ Diamond stain (Table 6). Format: biochemical. Conditions: kinase printed on MBP-coated slide; 20 uM ATP, 30° C.; ProQ Diamond Microarray Stain; graded Strong/Weak/Negative. The gist of the method: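 Bovine dephosphorylated MBP coated on aldehyde- or epoxy-glass slides, kinases printed on top; reaction buffer pH 7.5 with 4 mM MgCl2, 20 uM ATP, 5% DMSO, ± inhibitor, at 30° C. Phosphorylation detected by ProQ Diamond stain, 30 min in dark.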

Six molecules from patent US20090099029A1, “Methods and substrates for conducting assays” (Invitrogen Corporation, priority 2005, published 2009) can be followed below.

B1: PRKD1(PKD) (protein)
chain: MSAPPVLRPPSPLLPVAAAAAAAAAALVPGSGPGPAPFLAPVAAPVGGISFHLQIGLSREPVLLLQDSSGDYSLAHVREMACSIVDQKFPECGFYGMYDKILLFRHDPTSENILQLVKAASDIQEGDLIEVVLSASATFEDFQIRPHALFVHSYRAPAFCDHCGEMLWGLVRQGLKCEGCGLNYHKRCAFKIPNNCSGVRRRRLSNVSLTGVSTIRTSSAELSTSAPDEPLLQKSPSESFIGREKRSNSQSYIGRPIHLDKILMSKVKVPHTFVIHSYTRPTVCQYCKKLLKGLFRQGLQCKDCRFNCHKRCAPKVPNNCLGEVTINGDLLSPGAESDVVMEEGSDDNDSERNSGLMDDMEEAMVQDAEMAMAECQNDSGEMQDPDPDHEDANRTISPSTSNNIPLMRVVQSVKHTKRKSSTVMKEGWMVHYTSKDTLRKRHYWRLDSKCITLFQNDTGSRYYKEIPLSEILSLEPVKTSALIPNGANPHCFEITTANVVYYVGENVVNPSSPSPNNSVLTSGVGADVARMWEIAIQHALMPVIPKGSSVGTGTNLHRDISVSISVSNCQIQENVDISTVYQIFPDEVLGSGQFGIVYGGKHRKTGRDVAIKIIDKLRFPTKQESQLRNEVAILQNLHHPGVVNLECMFETPERVFVVMEKLHGDMLEMILSSEKGRLPEHITKFLITQILVALRHLHFKNIVHCDLKPENVLLASADPFPQVKLCDFGFARIIGEKSFRRSVVGTPAYLAPEVLRNKGYNRSLDMWSVGVIIYVSLSGTFPFNEDEDIHDQIQNAAFMYPPNPWKEISHEAIDLINNLLQVKMRKRYSVDKTLSHPWLQDYQTWLDLRELECKIGERYITHESDDLRWEKYAGEQGLQYPTHLINPSASHSDTPETEETEMKALGERVSIL
modifications: left off: a dimerising Fc or GST
In the case of B1, the “MBP Kinase Activity” value is “Weak”.

B2: PRKCN(PKD3) (protein)
chain: MSANNSPPSAQKSVLPTAIPAVLPAASPCSSPKTGLSARLSNGSFSAPSLTNSRGSVHTVSFLLQIGLTRESVTIEAQELSLSAVKDLVCSIVYQKFPECGFFGMYDKILLFRHDMNSENILQLITSADEIHEGDLVEVVLSALATVEDFQIRPHTLYVHSYKAPTFCDYCGEMLWGLVRQGLKCEGCGLNYHKRCAFKIPNNCSGVRKRRLSNVSLPGPGLSVPRPLQPEYVALPSEESHVHQEPSKRIPSWSGRPIWMEKMVMCRVKVPHTFAVHSYTRPTICQYCKRLLKGLFRQGMQCKDCKFNCHKRCASKVPRDCLGEVTFNGEPSSLGTDTDIPMDIDNNDINSDSSRGLDDTEEPSPPEDKMFFLDPSDLDVERDEEAVKTISPSTSNNIPLMRVVQSIKHTKRKSSTMVKEGWMVHYTSRDNLRKRHYWRLDSKCLTLFQNESGSKYYKEIPLSEILRISSPRDFTNISQGSNPHCFEIITDTMVYFVGENNGDSSHNPVLAATGVGLDVAQSWEKAIRQALMPVTPQASVCTSPGQGKDHKDLSTSISVSNCQIQENVDISTVYQIFADEVLGSGQFGIVYGGKHRKTGRDVAIKVIDKMRFPTKQESQLRNEVAILQNLHHPGIVNLECMFETPERVFVVMEKLHGDMLEMILSSEKSRLPERITKFMVTQILVALRNLHFKNIVHCDLKPENVLLASAEPFPQVKLCDFGFARIIGEKSFRRSVVGTPAYLAPEVLRSKGYNRSLDMWSVGVIIYVSLSGTFPFNEDEDINDQIQNAAFMYPPNPWREISGEAIDLINNLLQVKMRKRYSVDKSLSHPWLQDYQTWLDLREFETRIGERYITHESDDARWEIHAYTHNLVYPKHFIMAPNPDDMEEDP
modifications: left off: a dimerising Fc or GST
As for B2, the “MBP Kinase Activity” value is on record as “Weak”.

B3: PRKD2(PKD2) (protein)
chain: MATAPSYPAGLPGSPGPGSPPPPGGLELQSPPPLLPQIPAPGSGVSFHIQIGLTREFVLLPAASELAHVKQLACSIVDQKFPECGFYGLYDKILLFKHDPTSANLLQLVRSSGDIQEGDLVEVVLSASATFEDFQIRPHALTVHSYRAPAFCDHCGEMLFGLVRQGLKCDGCGLNYHKRCAFSIPNNCSGARKRRLSSTSLASGHSVRLGTSESLPCTAEELSRSTTELLPRRPPSSSSSSSASSYTGRPIELDKMLLSKVKVPHTFLIHSYTRPTVCQACKKLLKGLFRQGLQCKDCKFNCHKRCATRVPNDCLGEALINGDVPMEEATDFSEADKSALMDESEDSGVIPGSHSENALHASEEEEGEGGKAQSSLGYIPLMRVVQSVRHTTRKSSTTLREGWVVHYSNKDTLRKRHYWRLDCKCITLFQNNTTNRYYKEIPLSEILTVESAQNFSLVPPGTNPHCFEIVTANATYFVGEMPGGTPGGPSGQGAEAARGWETAIRQALMPVILQDAPSAPGHAPHRQASLSISVSNSQIQENVDIATVYQIFPDEVLGSGQFGVVYGGKHRKTGRDVAVKVIDKLRFPTKQESQLRNEVAILQSLRHPGIVNLECMFETPEKVFVVMEKLHGDMLEMILSSEKGRLPERLTKFLITQILVALRHLHFKNIVHCDLKPENVLLASADPFPQVKLCDFGFARIIGEKSFRRSVVGTPAYLAPEVLLNQGYNRSLDMWSVGVIMYVSLSGTFPFNEDEDINDQIQNAAFMYPASPWSHISAGAIDLINNLLQVKMRKRYSVDKSLSHPWLQEYQTWLDLRELEGKMGERYITHESDDARWEQFAAEHPLPGSGLPTDRDLGGACPPQDHDMQGLAERISVL
modifications: left off: a dimerising Fc or GST
As to B3, the “MBP Kinase Activity” value is on record as “Strong”.

B4: ROCK1 (protein)
chain: MSTGDSFETRFEKMDNLLRDPKSEVNSDCLLDGLDALVYDLDFPALRKNKNIDNFLSRYKDTINKIRDLRMKAEDYEVVKVIGRGAFGEVQLVRHKSTRKVYAMKLLSKFEMIKRSDSAFFWEERDIMAFANSPWVVQLFYAFQDDRYLYMVMEYMPGGDLVNLMSNYDVPEKWARFYTAEVVLALDAIHSMGFIHRDVKPDNMLLDKSGHLKLADFGTCMKMNKEGMVRCDTAVGTPDYISPEVLKSQGGDGYYGRECDWWSVGVFLYEMLVGDTPFYADSLVGTYSKIMNHKNSLTFPDDNDISKEAKNLICAFLTDREVRLGRNGVEEIKRHLFFKNDQWAWETLRDTVAPVVPDLSSDIDTSNFDDLEEDKGEEETFPIPKAFVGNQLPFVGFTYYSNRRYLSSANPNDNRTSSNADKSLQESLQKTIYKLEEQLHNEMQLKDEMEQKCRTSNIKLDKIMKELDEEGNQRRNLESTVSQIEKEKMLLQHRINEYQRKAEQENEKRRNVENEVSTLKDQLEDLKKVSQNSQL
modifications: left off: a dimerising Fc or GST
Consider B4, for which the “MBP Kinase Activity” value is on record as “Strong”.

B5: EPHB3 (protein)
chain: CLRKQRHGSDSEYTEKLQQYIAPGMKVYIDPFTYEDPNEAVREFAKEIDVSCVKIEEVIGAGEFGEVCRGRLKQPGRREVFVAIKTLKVGYTERQRRDFLSEASIMGQFDHPNIIRLEGVVTKSRPVMILTEFMENCALDSFLRLNDGQFTVIQLVGMLRGIAAGMKYLSEMNYVHRDLAARNILVNSNLVCKVSDFGLSRFLEDDPSDPTYTSSLGGKIPIRWTAPEAIAYRKFTSASDVWSYGIVMWEVMSYGERPYWDMSNQDVINAVEQDYRLPPPMDCPTALHQLMLDCWVRDRNLRPKFSQIVNTLDKLIRNAASLKVIASAQSGMSQPLLDRTVPDYTTFTTVGDWLDAIKMGRYKESFVSAGFASFDLVAQMTAEDLLRIGVTLAGHQKKILSSIQDMRLQMNQTLPVQV
modifications: left off: a dimerising Fc or GST
On to B5, for which the “MBP Kinase Activity” value is listed as “Strong”.

B6: PRKX (protein)
chain: MEAPGLAQAAAAESDSRKVAEETPDGAPALCPSPEALSPEPPVYSLQDFDTLATVGTGTFGRVHLVKEKTAKHFFALKVMSIPDVIRLKQEQHVHNEKSVLKEVSHPFLIRLFWTWHDERFLYMLMEYVPGGELFSYLRNRGRFSSTTGLFYSAEIICAIEYLHSKEIVYRDLKPENILLDRDGHIKLTDFGFAKKLVDRTWTLCGTPEYLAPEVIQSKGHGRAVDWWALGILIFEMLSGFPPFFDDNPFGIYQKILAGKIDFPRHLDFHVKDLIKKLLVVDRTRRLGNMKNGANDVKHHRWFRSVDWEAVPQRKLKPPIVPKIAGDGDTSNFETYPENDWDTAAPVPQKDLEIFKNF
modifications: left off: a dimerising Fc or GST
As for B6, the “MBP Kinase Activity” value was “Negative”.
